As usually defined, the IC50 is the midpoint of a concentration-inhibition curve. A higher IC50 goes with lower potency.

First the molecules themselves.
B5: hBCMA-ECD-Fc (fusion protein of human BCMA extracellular domain Met1-Ala54 and human IgG1 Fc fragment Pro100-Lys330) (Fc fusion, UniProt Q02223 1-54, looked up)
chain: MLQMAGQCSQNEYFDSLLHACIPCQLRCSSNTPPLTCQRYCNASVTNSVKGTNA
notes: range 1-54; also the immunogen; also called soluble extracellular domain of human BCMA; not shown: human IgG1 Fc fragment, Pro100-Lys330

The target of test [1] is B5. Briefly: ELISA, chimeric antibody supernatant.
The target of test [2] is T1, human BCMA on cells (L-BCMA+, K562-BCMA+, A549-BCMA-1D6) (human, UniProt Q02223 1-184).
T1 construct: whole, on cells; the cell line of each assay is named under assay; also called L-BCMA-1E6-A4; K562-BCMA-B22D8
T1 sequence (looked up): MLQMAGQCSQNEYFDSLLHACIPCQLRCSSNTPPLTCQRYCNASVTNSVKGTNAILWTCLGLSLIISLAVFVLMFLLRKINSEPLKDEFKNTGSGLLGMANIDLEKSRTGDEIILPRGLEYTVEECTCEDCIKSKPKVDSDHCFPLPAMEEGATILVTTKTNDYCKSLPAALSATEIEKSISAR
Briefly: FACS, chimeric antibody supernatant, L-BCMA+ cells. Background: Flow cytometry measures light scatter and fluorescence of single cells or particles in a stream.

Test [3] deals with T2, hybridoma antibody 6G10-1D7 (mAb001).
T2 construct: tested as supernatant and purified; also called CP01
The test can be described thus: flow cytometry competition: hBCMA-ECD-Fc against K562-BCMA+ cells for mAb001 at 1 µg/ml.

The target is the same in test [4]. The test can be described thus: flow cytometry competition: BCMA of K562-BCMA+ supernatant against K562-BCMA+ cells for mAb001 at 1 µg/ml.

T2 sequence (VH, as listed by the source, chain 1 of 2): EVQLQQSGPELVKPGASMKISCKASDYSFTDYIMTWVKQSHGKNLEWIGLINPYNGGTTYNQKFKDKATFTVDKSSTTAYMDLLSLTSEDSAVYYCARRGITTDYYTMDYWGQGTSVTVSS
T2 sequence (VL, as listed by the source, chain 2 of 2): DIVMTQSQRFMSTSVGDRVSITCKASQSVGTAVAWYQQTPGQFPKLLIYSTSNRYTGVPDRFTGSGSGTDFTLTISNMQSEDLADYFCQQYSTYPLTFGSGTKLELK

B1: chimeric antibody of hybridoma 105C10F1 (antibody, human IgG1, kappa, V domains shown)
VH: EVKLLQSGGGLVQPGGSLKLSCAASGIDFSRYWMSWVRRAPGKGLEWIGEINPDSSTINYAPSLKDKFIISRDAAKNTLYLQMSKVRSEDTALYYCATLYYDYDGDYAMDYWGQGTSVTVSS
VL: DIVMTPSQKFMSTSVGDRVSVTCKASQNVGTNVAWYQQKPGQSPKALIYSASYRYSGVPDRFTGSGSGTDFTLTISNVQSEDLAEYFCQHYNSYPFTFGSGTKLEIKR
notes: IgG1,κ chimeric antibody, HEK 293T supernatant
Take B1: in test [1], the “ELISA (OD450 nm)” value was 2.39 OD450. Besides, the “FACS (MFI)” value in test [2] was 1800 MFI.

B2: chimeric antibody of hybridoma 99B3G3 (antibody, human IgG1, kappa, V domains shown)
VH: EVQLQQSGPVLVKPGASVKMSCKASGYTFTDLYMNWVKQSHGKSLEWIGVINPYNGGTSYNQKFKAKATLTVDKSSITAYMELNSLTSEDSAVYYCARGDSIYVMDYWGQGTSVTVSS
VL: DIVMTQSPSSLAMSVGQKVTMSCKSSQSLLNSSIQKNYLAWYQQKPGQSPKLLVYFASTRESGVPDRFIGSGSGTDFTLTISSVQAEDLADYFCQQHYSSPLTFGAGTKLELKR
notes: as for B1
As to B2, the “ELISA (OD450 nm)” value in test [1] is 2.3 OD450. Besides, in test [2], the “FACS (MFI)” value was determined as 2180 MFI.

B3: chimeric antibody 107A9A4D2VH/VL-1 (antibody, human IgG1, kappa, V domains shown)
VH: EVQLQQSGPVLVKPGASVKMSCKASGYTFTDLYMNWLKQSHGKRLEWIGVINPYNGGTSYNQKFKGKATLTVDKSSSTAYMDLNSLTSEDSAVYYCARGDSIYVMDYWGQGTSFTVSS
VL: ENVLTQSPAIMSASPGEKVTMTCSASSSVSYMHWYQQKSSTSPKLWIYDTSKLSSGVPGRFSGSGSGKSYSLTISSMEAEDVATYYCFQGSGYPLFTFGSGTKLEIKR
notes: IgG1,κ chimeric antibody, HEK 293T supernatant; also called 107A9A4D2VH paired with 107A9A4D2VL-1
With B3, in test [1], the “ELISA (OD450 nm)” value was determined as 0.13 OD450. Also, the “FACS (MFI)” value in test [2] was 42.5 MFI.

B4: chimeric antibody 107A9A4D2VH/VL-2 (antibody, human IgG1, kappa, V domains shown)
VH: EVQLQQSGPVLVKPGASVKMSCKASGYTFTDLYMNWLKQSHGKRLEWIGVINPYNGGTSYNQKFKGKATLTVDKSSSTAYMDLNSLTSEDSAVYYCARGDSIYVMDYWGQGTSFTVSS
VL: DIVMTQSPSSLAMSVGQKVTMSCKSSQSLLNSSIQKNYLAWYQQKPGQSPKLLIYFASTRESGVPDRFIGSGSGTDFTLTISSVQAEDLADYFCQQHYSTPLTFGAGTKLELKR
notes: IgG1,κ chimeric antibody, HEK 293T supernatant; also called 107A9A4D2VH paired with 107A9A4D2VL-2
As to B4, the “ELISA (OD450 nm)” value in test [1] came to 2.45 OD450. The “FACS (MFI)” value in test [2] stood at 525 MFI.
As to B5, in test [3], the IC50 was 0.731 µg/mL and the “molar ratio at IC50” value is 1.7 molar ratio (:1).

B6: BCMA of K562-BCMA+ medium supernatant (soluble BCMA) (receptor, UniProt Q02223 1-54, looked up)
chain: MLQMAGQCSQNEYFDSLLHACIPCQLRCSSNTPPLTCQRYCNASVTNSVKGTNA
B6: in test [4], the IC50 worked out at 0.466 µg/mL and the “molar ratio at IC50” value is 10.4 molar ratio (:1).

B7: chimeric antibody of hybridoma 113B3F12 (antibody, human IgG1, kappa, V domains shown)
VH: EVQLQQSGPVLVKPGASVKMSCKASGYTFTDYYMNWVKQSHGKSLEWIGVINPYNGGTDYNQKFKGKATLTVDKSSSTAYMELNSLTSEDSAVYYCARRRESYGTSYQGAYFDSWGQGTTLTVSS
VL: DIQMTQTTSSLSASLGDRVTISCRASQDISNYLNWYQQKPDGTVKLLIYYTSRLHSGVPSRFSGSGSGTDYSLSISDLEQEDIATYFCQQVITLPWTFGGGTKLEIKR
notes: as for B1
For the molecule B7, in test [1], the “ELISA (OD450 nm)” value stood at 0.09 OD450. The “FACS (MFI)” value in test [2] was 37.5 MFI.
